Like-named read-outs stand apart in the source and are kept apart here.
Assays:
Assay in all cases: smFRET
yNhp6A [1] = target: T1, yNhp6A (Saccharomyces cerevisiae, UniProt P11632 1-93)
yNhp6A [2] = target: T1, yNhp6A; remark: listed apart in the source
yNhp6A [3] = target: T1, yNhp6A; remark: listed apart in the source
yNhp6A [4] = target: T1, yNhp6A; remark: listed apart in the source

T1 sequence (P11632 whole entry): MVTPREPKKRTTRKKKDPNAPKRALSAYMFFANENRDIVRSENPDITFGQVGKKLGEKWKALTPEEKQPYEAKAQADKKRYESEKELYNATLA

B1: linear_18a (dsDNA)
DNA 1: TGGCGACGGCAGCGAGGC
DNA 2: GCCTCGCTGCCGTCGCCATTTTTTTTTTTTTTT
yNhp6A [1]
  Kd: ~1 nM

B2: linear_15a (dsDNA)
DNA 1: CGACGGCAGCGAGGC
DNA 2: B1 DNA 2
yNhp6A [2]
  binding result: binds

B3: bulge_18a (dsDNA)
DNA 1: TGGCGACGGAACAGCGAGGC
DNA 2: B1 DNA 2
yNhp6A [3]
  binding signal: ~2 fold kon vs linear_18a

B4: bulge_15a (dsDNA)
DNA 1: CGACGGCAAAGCGAGGC
DNA 2: B1 DNA 2
yNhp6A [2]
  binding result: binds

B5: linear_18b (dsDNA)
DNA 1: TGGTTATATCATCTAGGC
DNA 2: GCCTAGATGATATAACCATTTTTTTTTTTTTTT
yNhp6A [4]
  binding signal: ~2 fold affinity vs linear_18a

Reference: publication PMC3554232
